According to publication PMC2713044:

Molecular target: Hen egg white lysozyme (HEL) (UniProt P00698)
Experiment: isothermal titration calorimetry
Settings: pH 8.0, 25.0 °C, no added salt (10 mM buffer only), 10 mM Tris

Chain of UniProt P00698 (P00698 whole entry): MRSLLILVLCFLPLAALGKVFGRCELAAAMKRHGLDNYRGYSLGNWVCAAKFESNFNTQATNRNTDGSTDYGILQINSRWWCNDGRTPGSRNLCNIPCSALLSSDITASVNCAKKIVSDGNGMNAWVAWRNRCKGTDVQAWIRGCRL

Q: Which ΔH does the source give for “HyHEL-10 (HH10) monoclonal antibody, whole IgG1” here?
A: -20.5 kcal/mol
